Measurements reported in patent US11866760B2, “Microorganisms for the production of insect pheromones and related compounds” (Provivi, Inc., priority 2017, dated 2024).

How the values were obtained:
palmitic acid [1] = assay: in vivo bioconversion assay of desaturases in C. tropicalis SPV053; format: cell-based, Candida tropicalis
Protocol: Functional expression of the heterologous desaturases was characterized by a series of in vivo bioconversion experiments. C. tropicalis SPV053 derived stains expressing insect desaturases were cultured in rich (YPD) or defined (CM glucose) media supplemented with ethanol (for induction) and saturated acid substrates (palmitic acid, methyl palmitate, methyl myristate). Small scale (2 ml) cultures were cultivated for a total of 72 hours in 24 deep well plates with substrate added after the initial 24 hours.
Positive isolates were re-patched onto YPD+300 μg/ml Zeocin and grown overnight and then stored at 4° C. Strains were inoculated from patch plates into 2 ml of YPD in 24 deep well plates (square well, pyramid bottom). Three positive clones were inoculated for each desaturase variant and the mCherry expressing control strain. Deep well plates were incubated at 30° C., 1000 rpm, and 80% humidity in the Infors HT Multitron Pro plate shaker for 24 hrs. After 24 hrs of incubation, cultures were split into equal 1 ml volumes to make two sets of identical plates. Both sets of plates were pelleted by centrifugation at 500×g. One set of plates was resuspended in 2 ml of YPD+0.3% (v/v) ethanol and the second set was resuspended in 2 ml of CM glucose+0.3% ethanol. Ethanol was added at this stage to induce recombinant enzyme expression from the ICL promoter. Cultures were incubated for another 24 hours under the same conditions before 300 mg/L palmitic acid was added to cultures from a 90 g/L stock solution in ethanol. The result was the addition of a fresh 0.3% ethanol in conjunction with the palmitic acid. A subset of strains was also cultured without palmitic acid addition. These cultures had 0.3% ethanol added instead. All cultures were incubated for an additional 24 hrs before a final addition of 0.3% ethanol. After another 24 hr period of incubation, 1.5 ml of each culture was harvested in 1.7 ml microcentrifuge tubes and pelleted. Supernatant was saved in fresh tubes and pellets were processed as described below. A subset of supernatant samples was also extracted to look for free acid in the extracellular medium.
The mCherry control and confirmed positive variants were rescreened using both palmitic acid and methyl palmitate as substrates. The culturing was conducted as described above with equimolar (1.17 mM) amounts of substrate added from ethanol stock solutions (methyl palmitate 94 g/L stock, 313 mg/L final concentration). The same protocol was also repeated with the full panel of strains using an 84 g/L stock of methyl myristate (C14:0). The final concentration of substrate was again 1.17 mM.
The in vivo bioconversion assay was scaled up for confirmation of (Z)-11-hexadecenoic acid synthesis. 2 ml YPD seed cultures of strains SPV0302, SPV0303, and SPV0304 (mCherry), […], SPV0305, and SPV0306 (A. transitella Z11 desaturase), and SPV0307, SPV0308, and SPV0309 (H. zea Z11 desaturase) were grown overnight at 30° C., 1000 rpm, 80% humidity in the Infors HT Multitron plate shaker. 200 μl of overnight culture from each of the three clonal isolates was pooled and inoculated into a single 125 ml baffled flask containing 20 ml YPD. The resulting three flasks were grown for 24 hrs at 30° C. and 250 rpm (Infors Flask shaker). Cultures were pelleted by centrifugation at 500×g and resuspended in 20 ml of YPD+0.3% (v/v) ethanol and returned to 125 ml baffled shake flasks. Cultures were incubated for an additional 24 hours before addition of 300 mg/L palmitic acid in a 90 g/L stock in ethanol (221 μl per flask). After 24 hours of incubation another 0.3% (v/v) ethanol (221 μl) was added to each flask for sustained induction. Flasks were incubated for an additional 24 hours before cells were harvested for FAME analysis and DMDS derivatization.
Total lipid composition as well as the (Z)-11-hexadecenoic acid quantification was based on modified procedures by Moss et al. (1982) and Yousuf et al (2010). […]

palmitic acid [2] = assay: in vivo bioconversion of palmitic acid into Z11-hexadecenoic acid in Y. lipolytica SPV140 and SPV300; format: cell-based, Yarrowia lipolytica; conditions: from ~500 mg/L palmitic acid substrate, 24 well plate assay
Protocol: Functional activity was assessed by a modification of the protocol used for transmembrane desaturase expression in C. viswanathii SPV053 (See Example 6). Briefly, Y. lipolytica SPV140 and SPV300 derived stains expressing insect desaturases were cultured in rich (YPD) to generate biomass. Using the YPD generated biomass, small scale (2 ml) cultures were cultivated with palmitic acid for a total of 48 hours in 24 deep well plates (See Materials & Methods for detail).
Positive isolates were re-patched onto YPD, grown overnight, and then stored at 4° C. Strains were inoculated from patch plates into 2 ml of YPD in 24 deep well plates (square well, pyramid bottom). Three positive clones were inoculated for each desaturase variant. Three isolates of pPV101 in SPV140 and the parent SPV300 were used as negative controls. Deep well plates were incubated at 28° C. and 250 rpm in the Infors Multitron refrigerated flask shaker for 24 hrs. […] Final cell densities were measured with the Tecan Infinite 200pro plate reader. […]
Total lipid composition as well as the (Z)-11-hexadecenoic acid quantification was based on modified procedures by Moss et al. (1982) and Yousuf et al (2010). […] For the analysis of lipids and the quantification of fatty acids 50 μL of 0.2 M TMSH (trimethylsulfonium hydroxide in methanol) was added and the sample analyzed by GC-FID.

S. cerevisiae ΔOLE1 = assay: ΔOLE1 growth complementation assay without UFA; format: cell-based, Saccharomyces cerevisiae
Excerpt: S. cerevisiae ΔOLE1 (MATA OLE1::LEU2 ura3-52 his4) was used as an expression host. A synthetic expression cassette termed pOLE1 (FIG. 10, SEQ ID NO: 4) which comprises the OLE1 promoter region (SEQ ID NOs: 5 and 6), nucleotides encoding for 27 N-terminal amino acids of the OLE1 leader sequence (SEQ ID NO: 7), and a VPS13 terminator sequence (SEQ ID NO: 8) was created, and cloned into pESC-URA vector in between SacI and EcoRI sites. To test the functionality of the pOLE1 cassette, Dasher GFP synthon was inserted in between SpeI and NotI sites to create pOLE1-GFP plasmid. Competent ΔOLE1 was transformed with pOLE1-GFP, and plated on CM-Ura glucose agar plate (Teknova) containing UFA (20 mm CM-URA glucose agar plate was coated with 100 μL CM-Ura glucose medium containing 1% tergitol, and 3 μL palmitoleic acid). […] Validation of ΔOLE1 complementation was performed by restoring OLE1 activity. Specifically, native S. cerevisiae OLE1 synthon was inserted into pOLE1 cassette devoid of the leader sequence to create pOLE1-OLE1 plasmid. After transformation of ΔOLE1, and selection on CM-Ura glucose agar containing UFA, single colonies were patched onto YPD and CM-Ura glucose without UFA. After incubation at 30° C. for 5 days, growth was observed (FIG. 11A-FIG. 11E). As expected, Dasher GFP expression could not complement ΔOLE1 growth without UFA (FIG. 11A-FIG. 11E). DNA sequences which encode for desaturase variants were synthesized (to include nucleotide changes which remove restriction sites used for cloning purposes), and cloned into pOLE1 using SpeI-NotI sites (Genscript, SEQ ID NOs: 9-13). Complementation assay of ΔOLE1 with insect desaturases were performed in the same way as with OLE1 desaturase.

[3] = SPV053, supplementation not stated
[4] = SPV053, with palmitic acid supplementation

B1: H. zea desaturase: Helicoverpa zea Z11 desaturase (AAF81787), SEQ ID NO: 54 (protein, listed as Helicoverpa zea)
chain: MAQSYQSTTVLSEEKELTLQHLVPQASPRKYQIVYPNLITFGYWHIAGLYGLYLCFTSAKWATILFSYILFVLAEIGITAGAHRLWAHKTYKAKLPLEILLMVFNSIAFQNSAIDWVRDHRLHHKYSDTDADPHNASRGFFYSHVGWLLVRKHPEVKKRGKELNMSDIYNNPVLRFQKKYAIPFIGAVCFALPTMIPVYFWGETWSNAWHITMLRYIMNLNVTFLVNSAAHIWGNKPYDAKILPAQNVAVSVATGGEGFHNYHHVFPWDYRAAELGNNSLNLTTKFIDLFAAIGWAYDLKTVSEDMIKQRIKRTGDGTDLWGHEQNCDEVWDVKDKSS
For B1, which “(Z)-11-hexadecenoic acid titer” value (palmitic acid [1]; SPV053) is on record?
Its value is ~5.96 mg/L.

What about the “activity on myristoyl-CoA” value (palmitic acid [1]; SPV053, methyl myristate substrate) of the same molecule?
Its value is “some activity on myristoyl-CoA”.

What about the “(Z)-11/(Z)-9 hexadecenoic acid ratio” value (palmitic acid [1]; SPV053, palmitic acid supplemented) of the same molecule?
The value was 1.4.

And the “(Z)-9-hexadecenoic acid in C16-fatty acid composition” value (palmitic acid [1]; [3])?
Its value is ~30.91%.

And the “(Z)-11-hexadecenoic acid in C16-fatty acid composition” value (palmitic acid [1]; [3])?
Its value is ~19.1%.

What about the “hexadecanoic acid in C16-fatty acid composition” value (palmitic acid [1]; [3]) of the same molecule?
The value was “approximately 50.0%”.

What about the “(Z)-9-hexadecenoic acid in C16-fatty acid composition” value (palmitic acid [1]; [4]) of the same molecule?
Its value is 17.5%.

What about the “(Z)-11-hexadecenoic acid in C16-fatty acid composition” value (palmitic acid [1]; [4]) of the same molecule?
Its value is 24.4%.

And the “hexadecanoic acid in C16-fatty acid composition” value (palmitic acid [1]; [4])?
Its value is 58.1%.

And the “(Z)-11/(Z)-9 hexadecenoic acid ratio” value (palmitic acid [1]; SPV053, without palmitic acid supplementation)?
The value was 0.6.

What about the Z11-hexadecenoic acid production (palmitic acid [2]) of the same molecule?
The Z11-hexadecenoic acid production was ~100 mg/L.

What about the “rescue of ΔOLE1 growth without UFA” value (S. cerevisiae ΔOLE1; minimal medium (CM-Ura glucose) agar plate) of the same molecule?
The value was “conferred growth without UFA”.

What about the “rescue of ΔOLE1 growth without UFA” value (S. cerevisiae ΔOLE1; rich medium (YPD) agar plate) of the same molecule?
Its value is “conferred growth without UFA”.
